Laboratory results as given in publication PMC5909925 (Molecular Biology of the Cell, 2018).
Residue numbers refer to the chain shown, from its start.

Tests used:
[1] = target: T1, full-length mouse His6-αE-catenin (WT) (mouse, UniProt P26231 1-906); test: BLI
T1 sequence (looked up): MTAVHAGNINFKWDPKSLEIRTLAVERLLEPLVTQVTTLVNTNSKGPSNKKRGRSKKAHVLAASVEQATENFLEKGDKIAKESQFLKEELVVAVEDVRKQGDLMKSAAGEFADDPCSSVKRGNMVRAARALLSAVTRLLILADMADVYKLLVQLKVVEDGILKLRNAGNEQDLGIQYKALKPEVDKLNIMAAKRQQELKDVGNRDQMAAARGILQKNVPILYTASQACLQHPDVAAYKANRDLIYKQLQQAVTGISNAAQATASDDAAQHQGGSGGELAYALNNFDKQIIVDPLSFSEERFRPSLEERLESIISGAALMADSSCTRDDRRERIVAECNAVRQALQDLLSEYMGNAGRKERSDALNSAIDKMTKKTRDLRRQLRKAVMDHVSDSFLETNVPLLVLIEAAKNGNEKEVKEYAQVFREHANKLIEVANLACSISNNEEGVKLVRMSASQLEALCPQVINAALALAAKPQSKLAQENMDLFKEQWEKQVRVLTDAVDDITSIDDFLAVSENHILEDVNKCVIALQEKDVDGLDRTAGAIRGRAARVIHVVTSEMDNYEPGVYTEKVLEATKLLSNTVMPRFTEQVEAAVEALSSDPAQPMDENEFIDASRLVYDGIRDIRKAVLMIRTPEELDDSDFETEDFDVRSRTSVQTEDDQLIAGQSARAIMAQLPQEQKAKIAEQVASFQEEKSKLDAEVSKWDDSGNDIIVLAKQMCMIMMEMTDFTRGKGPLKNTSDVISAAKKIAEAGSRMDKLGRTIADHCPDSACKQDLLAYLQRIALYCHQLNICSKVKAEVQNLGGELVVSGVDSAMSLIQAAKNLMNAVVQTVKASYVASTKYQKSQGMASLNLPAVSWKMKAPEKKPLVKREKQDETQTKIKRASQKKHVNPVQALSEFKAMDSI

[2] = target: T2, full-length mouse His6-αE-catenin R551A (mouse, UniProt P26231 1-906, R551A); test: BLI
T2 sequence (looked up): T1 sequence (looked up) with R551A

B1: constitutively active vinculin head domain (VHD, residues 1-252) (domain or fragment, human, UniProt P18206 1-252, looked up)
chain: MPVFHTRTIESILEPVAQQISHLVIMHEEGEVDGKAIPDLTAPVAAVQAAVSNLVRVGKETVQTTEDQILKRDMPPAFIKVENACTKLVQAAQMLQSDPYSVPARDYLIDGSRGILSGTSDLLLTFDEAEVRKIIRVCKGILEYLTVAEVVETMEDLVTYTKNLGPGMTKMAKMIDERQQELTHQEHRVMLVNSMNTVKELLPVLISAMKIFVTTKNSKNQGIEEALKNRNFTVEKMSAEINEIIRVLQLTS
Work on B1 yielded a Kd [1] of 1800 nM and a Kd [2] of 140 nM.
